Reference: PMC4059526 (2014)

Assays:
SNF = target: T1, SNF (Drosophila melanogaster, UniProt P43332)
T1 chain: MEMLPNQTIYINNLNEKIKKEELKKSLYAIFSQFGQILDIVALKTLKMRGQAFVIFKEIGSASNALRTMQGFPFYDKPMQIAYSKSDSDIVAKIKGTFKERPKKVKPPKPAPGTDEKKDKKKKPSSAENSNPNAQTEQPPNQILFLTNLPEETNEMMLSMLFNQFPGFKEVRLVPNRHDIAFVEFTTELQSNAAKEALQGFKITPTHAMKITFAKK

SNF (sans fille) = target: T2, SNF (sans fille) (Drosophila, UniProt P43332 1-216); experiment: 2-aminopurine fluorescence and CD
T2 sequence: T1 chain

B1: U2A' (protein)
chain: MVKLTPELINQSMQYINPCRERELDLRGYKIPQIENLGATLDQFDTIDLSDNDLRKLDNLPHLPRLKCLLLNNNRILRISEGLEEAVPNLGSIILTGNNLQELSDLEPLVGFTKLETICLLINPVSTKPNYREYMAYKFPQLRLLDFRKIKQKDRQAAQEFFRTKQGKDVLKEISRKSKMSAAAAIAAEAGNGKGRGSEGGRLANPQDMQRIREAIKRASSLAEVERLSQILQSGQLPDKFQHEMEAVAQNGAGHNGSGAVAMEY
modifications: SLIV RNA bound
With B1 the Kd (SNF) was 4 nM.

B2: 2AP-SLIV (structured_RNA)
RNA: GGCCGUAUUGCAGUACCGCGGCC
modifications: 2-aminopurine replaces A at position 15 (3'-loop adenine)
B2: binds (SNF (sans fille)).
